In patent publication US20190194304A1:

Target: C3d, P01024
Test: SPR, 0.5 µM FH with anti-FH.07 Fab′ (2 to 1 molar ratio) over immobilised C3d
Details: remark: other sources report otherwise

Chain of C3d, P01024 (P01024 1002-1303 limits assumed): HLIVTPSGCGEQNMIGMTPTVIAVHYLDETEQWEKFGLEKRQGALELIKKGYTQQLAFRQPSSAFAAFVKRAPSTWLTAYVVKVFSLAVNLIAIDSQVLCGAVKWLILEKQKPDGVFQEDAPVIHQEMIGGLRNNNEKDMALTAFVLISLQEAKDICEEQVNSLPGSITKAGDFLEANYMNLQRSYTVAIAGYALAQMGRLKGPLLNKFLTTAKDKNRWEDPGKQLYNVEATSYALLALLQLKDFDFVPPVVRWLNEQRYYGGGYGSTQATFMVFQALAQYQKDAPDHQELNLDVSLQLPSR

fold increase of the measured interactions (RU) with anti-FH.07 Fab′ against FH alone: > 2 fold
B1: human factor H, P08603 19-1231 (protein, UniProt P08603 19-1231, looked up)
chain: EDCNELPPRRNTEILTGSWSDQTYPEGTQAIYKCRPGYRSLGNVIMVCRKGEWVALNPLRKCQKRPCGHPGDTPFGTFTLTGGNVFEYGVKAVYTCNEGYQLLGEINYRECDTDGWTNDIPICEVVKCLPVTAPENGKIVSSAMEPDREYHFGQAVRFVCNSGYKIEGDEEMHCSDDGFWSKEKPKCVEISCKSPDVINGSPISQKIIYKENERFQYKCNMGYEYSERGDAVCTESGWRPLPSCEEKSCDNPYIPNGDYSPLRIKHRTGDEITYQCRNGFYPATRGNTAKCTSTGWIPAPRCTLKPCDYPDIKHGGLYHENMRRPYFPVAVGKYYSYYCDEHFETPSGSYWDHIHCTQDGWSPAVPCLRKCYFPYLENGYNQNYGRKFVQGKSIDVACHPGYALPKAQTTVTCMENGWSPTPRCIRVKTCSKSSIDIENGFISESQYTYALKEKAKYQCKLGYVTADGETSGSITCGKDGWSAQPTCIKSCDIPVFMNARTKNDFTWFKLNDTLDYECHDGYESNTGSTTGSIVCGYNGWSDLPICYERECELPKIDVHLVPDRKKDQYKVGEVLKFSCKPGFTIVGPNSVQCYHFGLSPDLPICKEQVQSCGPPPELLNGNVKEKTKEEYGHSEVVEYYCNPRFLMKGPNKIQCVDGEWTTLPVCIVEESTCGDIPELEHGWAQLSSPPYYYGDSVEFNCSESFTMIGHRSITCIHGVWTQLPQCVAIDKLKKCKSSNLIILEEHLKNKKEFDHNSNIRYRCRGKEGWIHTVCINGRWDPEVNCSMAQIQLCPPPPQIPNSHNMTTTLNYRDGEKVSVLCQENYLIQEGEEITCKDGRWQSIPLCVEKIPCSQPPQIEHGTINSSRSSQESYAHGTKLSYTCEGGFRISEENETTCYMGKWSSPPQCEGLPCKSPPEISHGVVAHMSDSYQYGEEVTYKCFEGFGIDGPAIAKCLGEKWSHPPSCIKTDCLSLPSFENAIPMGEKKDVYKAGEQVTYTCATYYKMDGASNVTCINSRWTGRPTCRDTSCVNPPTVQNAYIVSRQMSKYPSGERVRYQCRSPYEMFGDEEVMCLNGNWTEPPQCKDSTGKCGPPPPIDNGDITSFPLSVYAPASSVEYQCQNLYQLEGNKRITCRNGQWSEPPKCLHPCVISREIMENYNIALRWTAKQKLYSRTGESVEFVCKRGYRLSSRSHTLRTTCWDGKLEYPTCAKR
